Values of other authors in paper PMC4448168.

Biological target: α7 nAChR (UniProt P36544)
Sequence of UniProt P36544 (P36544 23-502): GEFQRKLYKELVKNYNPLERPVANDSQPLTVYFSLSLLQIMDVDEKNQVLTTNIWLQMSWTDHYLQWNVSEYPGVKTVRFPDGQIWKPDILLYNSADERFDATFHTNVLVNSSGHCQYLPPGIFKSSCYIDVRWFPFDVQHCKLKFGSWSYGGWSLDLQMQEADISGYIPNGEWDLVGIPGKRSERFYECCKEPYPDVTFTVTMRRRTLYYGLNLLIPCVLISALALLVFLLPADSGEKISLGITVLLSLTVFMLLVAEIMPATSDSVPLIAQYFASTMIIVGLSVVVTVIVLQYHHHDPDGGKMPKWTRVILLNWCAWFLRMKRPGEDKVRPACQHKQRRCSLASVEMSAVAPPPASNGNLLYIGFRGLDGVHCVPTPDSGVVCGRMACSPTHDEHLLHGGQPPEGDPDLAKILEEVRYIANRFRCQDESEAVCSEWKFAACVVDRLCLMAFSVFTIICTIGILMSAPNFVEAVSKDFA

## α-elapitoxin-Aa2a (from UniProt P86522)
  Ki: 214 µM
